Measurements taken from the supplement of paper PMC10567573.

B1: KRT15 (parent)
chain: SNFHINVEESVDGQVVSSHKREI
B2: SLC6A17 (parent)
chain: HMFTPKLDKMLDPQVWREAATQVF

Variants of: B1
Experiment: protein stability index of a GFP-peptide fusion (GPS, HEK-293T) (PSI 1-6); higher = more stable
Conditions: c terminus: native
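Further: lentivirally expressed fusions sorted by FACS into six bins by GFP to DsRed ratio, PSI derived from sequencing read proportions per bin multiplied by bin number.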

Protein stability index, by site and new letter:
S1: D 3.04; I 2.56; T 2.73; N 2.03; R 2.66; W 2.31; Y 1.23; G 1.39; Q 1.92; C 1.57; F 3.46; K 1.69; V 1.78; M 1.31; H 2.44; A 2.11; P 2.35
H4: R 1.6; E 3.18; G 2.5; D 2.63; N 2.09; V 1.03; M 1.59; F 1.49; Q 1.52; T 1.43; S 2.16; I 2.12; C 2.78; K 1.94; P 2.57; Y 2.37; A 1.98
Q14: S 1.94; F 1.99; I 1.55; T 2.12; C 2.21; A 2.04; N 2.05; H 1.6; D 2.33; K 2.35; P 2.34; L 1.65; Y 1.72; M 1.32; R 2.01
G13: I 2.02; N 2.3; H 1.64; V 1.55; D 2.36; Q 1.96; K 2.29; T 2.18; A 2.73; E 1.89; L 1.78; S 1.81; R 2.35; C 1.98; Y 2.59; F 1.86; P 2.19
E8: W 2.41; Y 2.88; R 2.02; P 2.47; H 1.78; I 2.73; T 1.34; F 3.87; D 1.8; A 1.57; S 2.03; N 1.9; V 1.32; L 2.02; Q 1.59; G 1.42; C 2.07; K 2.28
V16: C 2.25; A 2.19
I5: Y 1.24; A 3.14; C 4.36; S 3.06; Q 3.1; L 1.71; G 2.8; H 3.01; D 3.64; N 3.36; T 3.02; V 3.37; K 2.14; E 3.97; W 1.63; F 2.22; R 2.67; P 2.98; M 2.59
N6: T 2.42; H 2.28; L 2.23; S 1.63; I 3.69; Q 2.27; D 1.54; K 1.78; F 2.11; Y 1.06; G 2.24; C 1.9; P 1.9; E 1.88; M 2.11
S10: G 2.19; P 1.91; C 3.07; H 1.95; Q 1.81; Y 2.62; A 2.85; I 1.34; V 1.87; N 2.09; R 2.21; K 1.5; F 1.43; D 2.95; T 1.91; L 1.38; E 2.57
V15: Y 2.12; H 1.83; L 1.78; D 2.82; Q 2.78; I 2.11; A 1.71; E 2.23; G 2.67; S 3.12; C 1.48; F 1.96; T 2.31; M 4.02; N 2.52; P 2.84
D12: C 3.28; N 1.82; E 2.21; Q 2.07; T 2.21; H 2.38; I 1.34; G 1.45; W 3.13; R 3.65; Y 1; P 1.95; M 2.69; V 2.65; S 2.07; K 1.31
V7: W 2.64; G 3.08; D 2.01; M 1.14; E 3.63; R 2.78; Y 1.36; K 2.1; I 2.18; L 1.34; Q 2.88; T 3.07; P 2.14; S 2.12; N 2.1; H 2.11; A 2.76; C 4
F3: C 4.67; I 2.77; P 2.15; M 2.2; E 2.33; N 2.78; L 1.84; S 1.91; Q 2.5; T 2.69; Y 1.61; K 2.7; D 3.01; R 2.87; H 3.1; A 2.51; V 2.18
V11: S 2.48; A 1.94; F 3.87; W 1.86; R 1.46; Y 1.44; P 2.33; G 1.7; E 2.36; L 1.34; Q 2.3; N 2.33; C 2.69; I 2.17; T 1.67; D 2.09; K 1.53; H 1.83; M 1.85
E9: G 1.54; T 2.17; K 1; D 2.21; M 3.34; C 2.73; F 3.74; R 1.89; N 1.95; A 2.02; Q 1.47; H 2.1; P 2.26; S 1.45
N2: W 2.14; Y 1.68; K 1.36; R 1.39; G 1.87; F 2.6; A 1.57; T 1.9; E 1.69; P 3.02; S 1.96; I 2.85; L 2.23; H 2.79; C 2.13; M 2.04; V 1.71; D 1.78

Variants of: B2
Experiment: as above
Conditions: c terminus: a fixed tail appended

Protein stability index, by site and new letter:
V23: S 2.05; C 2.99; F 2.16; I 1.89; D 3.65; Y 2.17; L 1.58; A 2.02; Q 1.74; K 2.48; G 2.2; N 2.07; M 1.55; R 3.06; H 2.02; W 1.75; T 2.02; E 2.9; P 2.2
A20: S 2.03; P 1.48; T 2.19; L 2.6; R 1.87; N 1.94; V 1.22; Q 1.7
Q22: W 2.1; P 1.67; G 1.93; L 1.68; T 1.82; H 1.64; N 2.5; K 2.52; Y 1.85; S 1.9; C 1.81; E 1.9; M 3.21; R 1.77; D 2.43; I 1.45; A 1.36
F24: C 1.97; A 2.29; L 2.7; M 2.96; H 2.18; S 3.39; D 3.56; I 1.54; K 3.81; T 2.38; V 2.69; R 2.85; N 2.67; Q 2.64; Y 1.88; P 3.17
T21: S 1.94; V 1.71; H 1.76; N 2.21; Q 1.28; P 2.46; W 2.48; F 3.23; Y 1.54; E 2.42; A 1.91; M 1.54; C 1.06; I 1.48; D 2.36; K 3.06; G 2.13; R 1.84; L 1.88
